This note sets out measurements from paper PMC10693965.

Substrate in this data set: C[N+](C)(C)CCO
Nature of the data set: cells, lysate or membranes. The format is cell-based, Clonorchis sinensis. To be noted: ND96 (96 mM Na+), pH 7.4, 22–25°C, sodium-dependent, labelled compound.

B1: CsChT (Clonorchis sinensis) (protein)
chain: MLYIPGLIAIIIFYLLILLVGFWAARKSRSNPAGTTETEDVMLAGRNIGLIVGIFTMTATWVGGGYINGTAENTFRPGQGLVWCQAPIGYAASLVLGGFFFAKRMRSLAFVTMLDPFQNKYGERMCGLLFIPALLGETFWSAAILSALGATLGVIVELDHTTSVIISACIALLYTLFGGLYSVAYTDVVQLFCIFVGLWISLPFALLNKATVPISQTWDRWKGSVEAVDAGIYVDNLLMLTFGGIPWQVYFQRVLSCRTAKQAQILSFVAAIGCLIMALPSVLIGAVGASTDWNMTGYGRAENFTIPDGEAKLVLPLVLRYLCPVWVSFVGLGAVSAAVMSSSDSSVLSAASMFARNVVKPVFWQSATERQIIWVMRASIFGVGALSCLLAICIQSIYGLWYLCSDLIYVILFPQLICVLYVRFSNTYGSLIGYILGLFVRLTSGEALLGLPALFKYPYFYDDPQDFYQRFPCKTFAMLCTLVVTIVVSYFTDLYFRKDSKRLKYDFFHCYKQRASASGSIHIGNRFNRPSIRTAKLPIQVPEVDSENADVDENSNKNSNTLDNNKPLA
As usually defined, the Km is the substrate concentration at which the rate is half of its maximum. In the case of B1, the Km is 8.3 µM.
